Measurements: patent US20250339531A1, “DUX4 POLYPEPTIDES AND NUCLEIC ACIDS FOR TREATING INFLAMMATORY AND AUTOIMMUNE CONDITIONS” (Fred Hutchinson Cancer Center, priority 2021, published 2025)

B1: Q9P2E9 (protein, UniProt Q9P2E9 1-1410, looked up)
chain: MDIYDTQTLGVVVFGGFMVVSAIGIFLVSTFSMKETSYEEALANQRKEMAKTHHQKVEKKKKEKTVEKKGKTKKKEEKPNGKIPDHDPAPNVTVLLREPVRAPAVAVAPTPVQPPIIVAPVATVPAMPQEKLASSPKDKKKKEKKVAKVEPAVSSVVNSIQVLTSKAAILETAPKEVPMVVVPPVGAKGNTPATGTTQGKKAEGTQNQSKKAEGAPNQGRKAEGTPNQGKKTEGTPNQGKKAEGTPNQGKKAEGTPNQGKKAEGAQNQGKKVDTTPNQGKKVEGAPTQGRKAEGAQNQAKKVEGAQNQGKKAEGAQNQGKKGEGAQNQGKKAEGAQNQGKKAEGAQNQGKKAEGAQNQGKKAEGAQNQGKKAEGAQNQGKKAEGAQNQGKKVEGAQNQGKKAEGAQNQGKKAEGAQNQGKKAEGAQNQGKKAEGAQNQGKKAEGAQNQGKKAEGAQNQGKKAEGAQNQGKKVEGAQNQGKKAEGAQNQGKKAEGAQNQGKKAEGAQNQGQKGEGAQNQGKKTEGAQGKKAERSPNQGKKGEGAPIQGKKADSVANQGTKVEGITNQGKKAEGSPSEGKKAEGSPNQGKKADAAANQGKKTESASVQGRNTDVAQSPEAPKQEAPAKKKSGSKKKGEPGPPDADGPLYLPYKTLVSTVGSMVFNEGEAQRLIEILSEKAGIIQDTWHKATQKGDPVAILKRQLEEKEKLLATEQEDAAVAKSKLRELNKEMAAEKAKAAAGEAKVKKQLVAREQEITAVQARMQASYREHVKEVQQLQGKIRTLQEQLENGPNTQLARLQQENSILRDALNQATSQVESKQNAELAKLRQELSKVSKELVEKSEAVRQDEQQRKALEAKAAAFEKQVLQLQASHRESEEALQKRLDEVSRELCHTQSSHASLRADAEKAQEQQQQMAELHSKLQSSEAEVRSKCEELSGLHGQLQEARAENSQLTERIRSIEALLEAGQARDAQDVQASQAEADQQQTRLKELESQVSGLEKEAIELREAVEQQKVKNNDLREKNWKAMEALATAEQACKEKLLSLTQAKEESEKQLCLIEAQTMEALLALLPELSVLAQQNYTEWLQDLKEKGPTLLKHPPAPAEPSSDLASKLREAEETQSTLQAECDQYRSILAETEGMLRDLQKSVEEEEQVWRAKVGAAEEELQKSRVTVKHLEEIVEKLKGELESSDQVREHTSHLEAELEKHMAAASAECQNYAKEVAGLRQLLLESQSQLDAAKSEAQKQSDELALVRQQLSEMKSHVEDGDIAGAPASSPEAPPAEQDPVQLKTQLEWTEAILEDEQTQRQKLTAEFEEAQTSACRLQEELEKLRTAGPLESSETEEASQLKERLEKEKKLTSDLGRAATRLQELLKTTQEQLAREKDTVKKLQEQLEKAEDGSSSKEGTSV
modifications: full-length
B2: Q14240 (protein, UniProt Q14240 1-407, looked up)
chain: MSGGSADYNREHGGPEGMDPDGVIESNWNEIVDNFDDMNLKESLLRGIYAYGFEKPSAIQQRAIIPCIKGYDVIAQAQSGTGKTATFAISILQQLEIEFKETQALVLAPTRELAQQIQKVILALGDYMGATCHACIGGTNVRNEMQKLQAEAPHIVVGTPGRVFDMLNRRYLSPKWIKMFVLDEADEMLSRGFKDQIYEIFQKLNTSIQVVLLSATMPTDVLEVTKKFMRDPIRILVKKEELTLEGIKQFYINVEREEWKLDTLCDLYETLTITQAVIFLNTRRKVDWLTEKMHARDFTVSALHGDMDQKERDVIMREFRSGSSRVLITTDLLARGIDVQQVSLVINYDLPTNRENYIHRIGRGGRFGRKGVAINFVTEEDKRILRDIETFYNTTVEEMPMNVADLI
modifications: full-length
B3: P04899 (protein, UniProt P04899 1-355, looked up)
chain: MGCTVSAEDKAAAERSKMIDKNLREDGEKAAREVKLLLLGAGESGKSTIVKQMKIIHEDGYSEEECRQYRAVVYSNTIQSIMAIVKAMGNLQIDFADPSRADDARQLFALSCTAEEQGVLPDDLSGVIRRLWADHGVQACFGRSREYQLNDSAAYYLNDLERIAQSDYIPTQQDVLRTRVKTTGIVETHFTFKDLHFKMFDVGGQRSERKKWIHCFEGVTAIIFCVALSAYDLVLAEDEEMNRMHESMKLFDSICNNKWFTDTSIILFLNKKDLFEEKITHSPLTICFPEYTGANKYDEAASYIQSKFEDLNKRKDTKEIYTHFTCATDTKNVQFVFDAVTDVIIKNNLKDCGLF
modifications: full-length
B4: P68104 (protein, UniProt P68104 1-462, looked up)
chain: MGKEKTHINIVVIGHVDSGKSTTTGHLIYKCGGIDKRTIEKFEKEAAEMGKGSFKYAWVLDKLKAERERGITIDISLWKFETSKYYVTIIDAPGHRDFIKNMITGTSQADCAVLIVAAGVGEFEAGISKNGQTREHALLAYTLGVKQLIVGVNKMDSTEPPYSQKRYEEIVKEVSTYIKKIGYNPDTVAFVPISGWNGDNMLEPSANMPWFKGWKVTRKDGNASGTTLLEALDCILPPTRPTDKPLRLPLQDVYKIGGIGTVPVGRVETGVLKPGMVVTFAPVNVTTEVKSVEMHHEALSEALPGDNVGFNVKNVSVKDVRRGNVAGDSKNDPPMEAAGFTAQVIILNHPGQISAGYAPVLDCHTAHIACKFAELKEKIDRRSGKKLEDGPKFLKSGDAAIVDMVPGKPMCVESFSDYPPLGRFAVRDMRQTVAVGVIKAVDKKAAGAGKVTKSAQKAQKAK
modifications: full-length
B5: P20020 (protein, UniProt P20020 1-1220, looked up)
chain: MGDMANNSVAYSGVKNSLKEANHDGDFGITLAELRALMELRSTDALRKIQESYGDVYGICTKLKTSPNEGLSGNPADLERREAVFGKNFIPPKKPKTFLQLVWEALQDVTLIILEIAAIVSLGLSFYQPPEGDNALCGEVSVGEEEGEGETGWIEGAAILLSVVCVVLVTAFNDWSKEKQFRGLQSRIEQEQKFTVIRGGQVIQIPVADITVGDIAQVKYGDLLPADGILIQGNDLKIDESSLTGESDHVKKSLDKDPLLLSGTHVMEGSGRMVVTAVGVNSQTGIIFTLLGAGGEEEEKKDEKKKEKKNKKQDGAIENRNKAKAQDGAAMEMQPLKSEEGGDGDEKDKKKANLPKKEKSVLQGKLTKLAVQIGKAGLLMSAITVIILVLYFVIDTFWVQKRPWLAECTPIYIQYFVKFFIIGVTVLVVAVPEGLPLAVTISLAYSVKKMMKDNNLVRHLDACETMGNATAICSDKTGTLTMNRMTVVQAYINEKHYKKVPEPEAIPPNILSYLVTGISVNCAYTSKILPPEKEGGLPRHVGNKTECALLGLLLDLKRDYQDVRNEIPEEALYKVYTFNSVRKSMSTVLKNSDGSYRIFSKGASEIILKKCFKILSANGEAKVFRPRDRDDIVKTVIEPMASEGLRTICLAFRDFPAGEPEPEWDNENDIVTGLTCIAVVGIEDPVRPEVPDAIKKCQRAGITVRMVTGDNINTARAIATKCGILHPGEDFLCLEGKDFNRRIRNEKGEIEQERIDKIWPKLRVLARSSPTDKHTLVKGIIDSTVSDQRQVVAVTGDGTNDGPALKKADVGFAMGIAGTDVAKEASDIILTDDNFTSIVKAVMWGRNVYDSISKFLQFQLTVNVVAVIVAFTGACITQDSPLKAVQMLWVNLIMDTLASLALATEPPTESLLLRKPYGRNKPLISRTMMKNILGHAFYQLVVVFTLLFAGEKFFDIDSGRNAPLHAPPSEHYTIVFNTFVLMQLFNEINARKIHGERNVFEGIFNNAIFCTIVLGTFVVQIIIVQFGGKPFSCSELSIEQWLWSIFLGMGTLLWGQLISTIPTSRLKFLKEAGHGTQKEEIPEEELAEDVEEIDHAERELRRGQILWFRGLNRIQTQIRVVNAFRSSLYEGLEKPESRSSIHNFMTHPEFRIEDSEPHIPLIDDTDAEDDAPTKRNSSPPPSPNKNNNAVDSGIHLTIEMNKSATSSSPGSPLHSLETSL
modifications: full-length
B6: O00469 (protein, UniProt O00469 1-737, looked up)
chain: MGGCTVKPQLLLLALVLHPWNPCLGADSEKPSSIPTDKLLVITVATKESDGFHRFMQSAKYFNYTVKVLGQGEEWRGGDGINSIGGGQKVRLMKEVMEHYADQDDLVVMFTECFDVIFAGGPEEVLKKFQKANHKVVFAADGILWPDKRLADKYPVVHIGKRYLNSGGFIGYAPYVNRIVQQWNLQDNDDDQLFYTKVYIDPLKREAINITLDHKCKIFQTLNGAVDEVVLKFENGKARAKNTFYETLPVAINGNGPTKILLNYFGNYVPNSWTQDNGCTLCEFDTVDLSAVDVHPNVSIGVFIEQPTPFLPRFLDILLTLDYPKEALKLFIHNKEVYHEKDIKVFFDKAKHEIKTIKIVGPEENLSQAEARNMGMDFCRQDEKCDYYFSVDADVVLTNPRTLKILIEQNRKIIAPLVTRHGKLWSNFWGALSPDGYYARSEDYVDIVQGNRVGVWNVPYMANVYLIKGKTLRSEMNERNYFVRDKLDPDMALCRNAREMGVFMYISNRHEFGRLLSTANYNTSHYNNDLWQIFENPVDWKEKYINRDYSKIFTENIVEQPCPDVFWFPIFSEKACDELVEEMEHYGKWSGGKHHDSRISGGYENVPTDDIHMKQVDLENVWLHFIREFIAPVTLKVFAGYYTKGFALLNFVVKYSPERQRSLRPHHDASTFTINIALNNVGEDFQGGGCKFLRYNCSIESPRKGWSFMHPGRLTHLHEGLPVKNGTRYIAVSFIDP
modifications: full-length
B7: O43865 (protein, UniProt O43865 1-530, looked up)
chain: MSMPDAMPLPGVGEELKQAKEIEDAEKYSFMATVTKAPKKQIQFADDMQEFTKFPTKTGRRSLSRSISQSSTDSYSSAASYTDSSDDEVSPREKQQTNSKGSSNFCVKNIKQAEFGRREIEIAEQDMSALISLRKRAQGEKPLAGAKIVGCTHITAQTAVLIETLCALGAQCRWSACNIYSTQNEVAAALAEAGVAVFAWKGESEDDFWWCIDRCVNMDGWQANMILDDGGDLTHWVYKKYPNVFKKIRGIVEESVTGVHRLYQLSKAGKLCVPAMNVNDSVTKQKFDNLYCCRESILDGLKRTTDVMFGGKQVVVCGYGEVGKGCCAALKALGAIVYITEIDPICALQACMDGFRVVKLNEVIRQVDVVITCTGNKNVVTREHLDRMKNSCIVCNMGHSNTEIDVTSLRTPELTWERVRSQVDHVIWPDGKRVVLLAEGRLLNLSCSTVPTFVLSITATTQALALIELYNAPEGRYKQDVYLLPKKMDEYVASLHLPSFDAHLTELTDDQAKYLGLNKNGPFKPNYYRY
modifications: full-length

test system: proteins that co-immunoprecipitated with DUX4-CTD constructs expressed in MB135 myoblasts; experiment: LC-MS of proteins co-immunoprecipitated with DUX4-CTD (Table 1) and western validation; format: binding, human; design: key to 4. mL1dL2 + Dox + IFNG / 4. + IFNG mix / 4. longCTD + Dox + IFNG / 3. + IFNg + Dox longCTD / 3. + Dox longCTD / 3. + IFNG longCTD: peptide-spectrum matches (PSMs) per protein; conditions: LC-MS counts of the listed protein co-immunoprecipitated with DUX4-CTD bait longCTD; experiment 4, Dox + IFNG
Summary of the method: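 Two independent experiments compared uninduced, doxycycline and doxycycline+IFNG MB135iDUX4-CTD (plus MB135iDUX4mL1dL2) myoblasts. Anti-FLAG pulldowns (3 h, 4 °C) were eluted in LDS buffer for western validation or with FLAG peptide for trypsin digestion and Orbitrap LC-MS; hits needed ≥2 PSMs in both experiments, ranked by total PSMs.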

Molecule | 4. longCTD + Dox + IFNG
B1 | 4
B2 | 6
B3 | 11
B4 | 9
B5 | 13
B6 | 7

same assay, conditions: bait longCTD; experiment 3, Dox only

Molecule | 3. + Dox longCTD
B7 | 7
B1 | 24
B2 | 1
B4 | 9
B5 | 1

same assay, conditions: bait longCTD; experiment 3, IFNg + Dox

Molecule | 3. + IFNg + Dox longCTD
B7 | 11
B1 | 68
B3 | 1
B4 | 21
B5 | 1
B6 | 3

same assay, conditions: sum over all samples

Molecule | SUM of PSMS
B7 | 19
B1 | 112
B2 | 7
B3 | 29
B4 | 46
B5 | 36
B6 | 25
